Data from the supplement of paper PMC12042874.
± gives the uncertainty stated by the source.

assay: amyloid nucleation score (Sup35N fusion, yeast selection) (log enrichment); library NNK2; higher = more nucleation; inactive = no reads after selection
Procedure, shortened: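 Three technical output replicates were used for random libraries. Psi-negative yeast expressing peptides of 20 random codons fused to Sup35N were induced with 100 μM copper sulfate for 24 hours and grown 7 days at 30°C on medium lacking adenine and uracil, and input and output plasmid inserts were Illumina-sequenced, excluding sequences with under 100 input reads. The nucleation score is the DiMSum log enrichment of output over input reads, centred on the mode score of non-aggregating sequences.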

Row | Substance | amyloid nucleation score
1 | NGVPT | -1.43 ± 1.1
2 | FGLTACH | -0.579 ± 0.54
3 | CFSRMRRTEW | -0.142 ± 0.23
4 | WSVCARYSSGVCIAHCTQMK | 1.3 ± 0.25
5 | FVFVAARAFCRSVSNVSD | -0.399 ± 0.55
6 | KRSVVKNLG | 0.157 ± 0.29
7 | FCGYSAVVSRAGGCTNLSDE | inactive
8 | FCTHSQARDQVNSNHTMALL | 2.84 ± 0.064
9 | YCMMPATGICVLDVSVCRDT | 8.289 ± 0.054
10 | GIIAMHSLPRQIGIVLFIAR | 3.3 ± 0.088
11 | FVNATVLR | 1.24 ± 0.16
12 | IWYCRK | -1.11 ± 0.44
13 | AFTLQIHGFSVIVTASLQVS | -0.642 ± 1.1
14 | MFWRSYNWDFSCYCNCSRGR | 5.054 ± 0.033
15 | HGGQRMCAGCV | 0.865 ± 0.31
16 | RACADGTSEPNAVALCLNAV | 0.832 ± 0.43
17 | HHRMSYHY | 1.72 ± 0.28
18 | VRLRASDKCLNV | 1.59 ± 0.27
19 | KDAPEECNYVQFKA | 0.273 ± 0.61
20 | MMYDRIIQFTLYTLI | 3.09 ± 0.057
21 | DLNYFSTMGEVLYMFSVLTY | -0.08 ± 1
22 | SLGHGKYMVCWGWYALGFYK | -0.368 ± 0.28
23 | GDVGAVRVSCVCWLVLVKRG | 0.066 ± 0.76
24 | RNAQDKESKIGTVSDSNHWV | 0.107 ± 0.36
25 | RDMHLGRTEFVARYWELFRY | -0.473 ± 0.78

Row | Substance | amyloid nucleation score
26 | RFGRSQVRAKCRVDDDRWIR | 4.63 ± 0.071
27 | STCKLWGVQWFPGGEDRNWK | -0.155 ± 0.42
28 | TSSTLGLYSHDMPTATHLME | -0.176 ± 0.41
29 | HSSCIVVEAFSQGVVHNLFV | -0.567 ± 1.1
30 | YVCVNWTFTFLFLCLVGRSL | 0.36 ± 0.22
31 | SRRGDRSRWCEMVMDVKVCS | 5.208 ± 0.041
32 | DPNLPETVTGVIMFASVGGA | -0.13 ± 0.76
33 | IMFICTGRSLTHTD | -0.642 ± 1.1
34 | VKLMY | -1.12 ± 0.62
35 | WSMCFMPVRWSFSGTIYMHK | 0.472 ± 0.56
36 | TIYHSGRCLRKKGRELW | -0.139 ± 0.37
37 | DTDDVNHYSFTPRALSSGFI | inactive
38 | YSWVEPRSRRAVEHDS | 0.551 ± 0.3
39 | YNKLRPGATCHLETWS | -0.614 ± 0.79
40 | CEGNGVFYGLPYSGSDIPNR | -0.719 ± 0.61
41 | TVAVGVIV | inactive
42 | LILNLVFFVIPDTVFYTSGL | 6.732 ± 0.058
43 | CGVFCLV | 1.44 ± 0.41
44 | RWAFTSFGSCLDKCYKYDYC | -0.913 ± 0.49
45 | KHCIIRFIKLGLGKKLKQPV | -1.02 ± 0.36
46 | CSCMKFWKFLLIRQSYKPGM | 2.16 ± 0.18
47 | SNSNTSEWKTG | -0.156 ± 0.79
48 | ITFAYVSLTLHRINEMGYQL | 4.65 ± 0.049
49 | RGFRGRFVFGRT | -0.183 ± 0.49
50 | NNSMYILYSGYTFGCYTRGL | 6.38 ± 0.066

Row | Substance | amyloid nucleation score
51 | KLFSYPIWWSRYCRMGRHRC | 0.374 ± 0.28
52 | SLFLVRKDFMFCLTSLASVR | 2.07 ± 0.16
53 | GGLTIAKFCESMVLLRFSRT | 0.399 ± 0.32
54 | FDMLVNGHVIYRNRKSSSYI | 0.216 ± 0.62
55 | SSYMSRALSCGHSFGKVGAN | 0.697 ± 0.81
56 | YLLRNWLPGKVGCHQFLILW | 0.757 ± 0.39
57 | VANNTGAKSYVFMARNAMCF | -0.602 ± 0.49
58 | KSVWLKVGCQPPIRFEFCEM | 0.037 ± 0.49
59 | WISTTYASLDNPSHKGIVLM | -0.302 ± 0.48
60 | MLWVWSLSQTLVRTKVRVLS | 0.024 ± 0.5
61 | IDQCIYDHVHNWVRRVDTRS | 0.223 ± 0.18
62 | MMWLGFYSCKGIGW | 3.991 ± 0.039
63 | SILSRCIRQVLFREPDVWRS | -0.32 ± 0.48
64 | IFSIHVVAQTINE | 4.64 ± 0.085
65 | TWRNYS | -0.279 ± 0.35
66 | FLIINYRSCRGINFIYARFY | inactive
67 | CNLSFVGS | 0.287 ± 0.25
68 | NYYINDADGRLLARWLYKLF | -0.865 ± 0.25
69 | LLGMVNTQLKGNHSYTYKSG | -1.14 ± 0.55
70 | RSMFDWYKCILHDLISLQSR | 0.769 ± 0.47
71 | CRSRT | 0.978 ± 0.28
72 | WYCSHFISFHLESKF | 4.76 ± 0.11
73 | NLHFCVQKSGESASRVVHHA | 0.958 ± 0.46
74 | VVSINVQVDHVCYAFSQVSQ | 8.211 ± 0.062
75 | IWSYLRSSASWPMNASNTSA | 0.905 ± 0.34

Row | Substance | amyloid nucleation score
76 | MDWVQGAFMPRGSGHWHN | -0.327 ± 0.79
77 | VYMKKINSFITMMSVHGNCS | 5.11 ± 0.068
78 | VCYIPYMLRSHLNALTFLSV | -0.492 ± 0.76
79 | LADTVIMGLGSTLFVYVYLI | 3.88 ± 0.077
80 | SIVSHKVITISMFVI | 4.5 ± 0.077
81 | YVATMGKGLNYLSCLEDNAA | 0.282 ± 0.56
82 | KSETAVRVNGYGAKIQE | -0.224 ± 0.79
83 | VALSSVFKEESCRVIRIMES | -1.02 ± 0.32
84 | IVWGC | 0.493 ± 0.34
85 | DGVSCSRVNAVVYARLSQMG | 1.3 ± 0.23
86 | GSVRYWK | -0.685 ± 0.36
87 | ISNVNLTE | -0.763 ± 0.4
88 | VVLGLDNPIHLIFLKDVNYC | -1.5 ± 1.1
89 | PAFQCMVQMKPGLWVV | -0.456 ± 0.78
90 | VRIFWTVTLFDCRLLRWLSN | 0.045 ± 0.38
91 | YAEHYWHLDNRTDWGIKEGY | -0.78 ± 0.61
92 | MAGVTPLELLCGPNQFALMR | 1.95 ± 0.48
93 | TFRCVVRPLGMRSVLMAGSG | 0.852 ± 0.47
94 | SDGSGNGEWSEMQVLWTRSN | 1.07 ± 0.33
95 | LNVMFCNVVNGFYYMDSFVC | 6.838 ± 0.044
96 | DLKVDQSVWRSLDMNALVAN | 1.27 ± 0.44
97 | ISFLSNR | 1.58 ± 0.27
98 | VLYLLKSSSFSTGVNSRCMR | -0.256 ± 1.1
99 | FLCRLLGSGRSHHIRVC | 0.15 ± 0.22
100 | HSRRGGFRKYSSTLARPASD | -0.799 ± 0.49

Row | Substance | amyloid nucleation score
101 | FPKIQSKFSRDIFSDGNEYE | inactive
102 | YFNFIPGANRHDVSHFYGSY | 0.299 ± 0.21
103 | FMVVC | 0.249 ± 0.39
104 | VSELGSGSFIFCTFLADFHM | 6.3 ± 0.079
105 | FYRHCFVVTNKRAPSKSRSK | 4.61 ± 0.11
106 | SPDATGYTNKVLGSRLIRRR | 1.44 ± 0.38
107 | CPLNLPTLGRLATEKRAWG | -0.177 ± 0.79
108 | DRRWHRALQN | 0.137 ± 0.37
109 | KMTRLLFYWSFGCGLIHLVC | -0.464 ± 1.1
110 | SSMVQR | -0.917 ± 0.55
111 | IWLDSHSSAWISWTIMI | -0.585 ± 0.41
112 | VLYHFEISA | -0.011 ± 0.54
113 | SMNPWYIHWLI | 0.003 ± 0.79
114 | SCDLYDTKSESFWLPSNMGS | 0.73 ± 0.44
115 | ALLWWRVKLSAHYRYGLNYW | 0.27 ± 0.4
116 | GNCCDDCP | 1.53 ± 0.24
117 | YTIIKWPL | -0.21 ± 0.79
118 | NYLQCWVFGRESMSLYKIWL | -0.081 ± 1.1
119 | VDYVGSYTVSEDREENLAKP | 3.75 ± 0.096
120 | AMYIIAFSPTK | 1.36 ± 0.67
121 | GFTENKIRDVFGVFHFIVGD | 0.479 ± 0.8
122 | CAKLGTSSRFIFE | 0.073 ± 1.1
123 | TITNCP | inactive
124 | SVRLNFEFRDYDCRQVLSIF | -0.825 ± 1.1
125 | VSCCCFFGLTLAVLGHSEVS | 3.55 ± 0.12

Row | Substance | amyloid nucleation score
126 | NPRTQF | -0.108 ± 0.28
127 | VHVRGACCHGCRARNVSGHP | 1.05 ± 0.19
128 | WMRFYSYNGIY | -1.26 ± 1.1
129 | HINMIGWEFSVGYGWQ | 4.9 ± 0.061
130 | MIERMSNRGMACLFVETRSG | -0.149 ± 0.76
131 | LCSKGYIMRSAGCRVDCSGV | -0.58 ± 0.41
132 | EWDVLGLRGRANN | 1.36 ± 0.35
133 | MQWETSGVLCWSKQFGGDWV | 0.864 ± 0.23
134 | LASPGTRFSFGSLVACGVVQ | -0.178 ± 0.35
135 | HYVSNEHSVRRTHHRKTKLT | 0.753 ± 0.67
136 | YNSRNIEDFFVIDLVNWLRL | -1.24 ± 1.1
137 | SLNDKFSLMGLICFWWWCLV | -0.184 ± 0.79
138 | NIVRYAMELCDIN | 4.08 ± 0.1
139 | CWDRFTYEYLSFYSLISRV | inactive
140 | RCDLWLSYCQPLNVFLYWLV | 0.313 ± 0.65
141 | LMAKVRLRVGLGHWLDVWG | 2.93 ± 0.12
142 | VKSTSFPTWMISMIGQRTAH | -0.711 ± 1.1
143 | YKRLEMLRMSCTIWTITPPR | 0.234 ± 0.32
144 | MTWARRRSINIYDRHLRMAG | -0.388 ± 1
145 | LYQMCIRLI | -0.657 ± 0.55
146 | DCHEGRTNPRALKCFTEERG | 0.173 ± 1.1
147 | SFDVWAALNENLPHISYFDQ | -0.14 ± 1.1
148 | WGQNNAEAFNYALMWVFRVW | 2.49 ± 0.11
149 | STNIRSLMLLFCNNIEQASV | 7.816 ± 0.038
150 | KSRLGCTWSGAHQSIRPLRR | 1.22 ± 0.41

Row | Substance | amyloid nucleation score
151 | NGGAVFCVHACYGFRGRYER | 5.05 ± 0.045
152 | TSHSCGYLWCSLV | 0.211 ± 0.61
153 | GSVGGSGIAACGTSDGGTVR | 2.02 ± 0.27
154 | LPKREPGDKGTLLYYDQELS | 0.167 ± 0.53
155 | SAGGVSPFP | -0.659 ± 0.63
156 | DCPLFQRLYRQS | -0.211 ± 0.22
157 | IFAAGYMYIFILVYLLTARG | -0.01 ± 1
158 | AVRVGGTGFRVRS | -0.121 ± 0.48
159 | PFVVNVAGLKMSVRV | 3.71 ± 0.07
160 | YQSFFVINLYNGLHTRGMRV | 7.701 ± 0.055
161 | NSLRCSLIWMGQLPLSGTHV | inactive
162 | VRLFVFSKVKGLIMVNCSWK | -1.35 ± 0.44
163 | GRSSAWFNEGRLW | 0.383 ± 0.39
164 | DPNLGLSTW | 0.47 ± 0.34
165 | DSISNISDPCGFLGQESWVN | 4.83 ± 0.063
166 | FSKGEATDCSWQ | 0.918 ± 0.34
167 | HAGVMLSFNIVVPNFTYSKE | 8.448 ± 0.051
168 | FYLKFHRCGR | 1.3 ± 0.11
169 | FFTANPV | 0.335 ± 0.64
170 | YNGTTLMMGDIGSCSFI | -0.787 ± 0.38
171 | VLVEGVQCYSENRTNT | 1.49 ± 0.41
172 | FAFVYSNHFGQMCYRNVCLS | inactive
